Measured values taken from patent US20240175038.

Target: T1, IntC3 (mutant phage lambda integrase) (Enterobacteria phage lambda) (UniProt P03700)
T1 sequence: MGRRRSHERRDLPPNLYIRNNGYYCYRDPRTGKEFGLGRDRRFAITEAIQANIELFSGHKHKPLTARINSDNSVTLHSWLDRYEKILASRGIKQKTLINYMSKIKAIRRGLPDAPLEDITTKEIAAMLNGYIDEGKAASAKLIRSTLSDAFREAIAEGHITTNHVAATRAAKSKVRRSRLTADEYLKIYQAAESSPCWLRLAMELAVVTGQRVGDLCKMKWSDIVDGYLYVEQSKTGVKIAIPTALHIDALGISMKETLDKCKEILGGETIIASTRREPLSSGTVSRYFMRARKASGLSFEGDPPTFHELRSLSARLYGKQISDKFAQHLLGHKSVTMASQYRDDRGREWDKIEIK
Test: cell_activity
Conditions: E. coli MG1655-ISC, scIHF2 co-expressed, arabinose 70 min

For 21 bp attB homologue in pattPhae2(attL), the activity (% recombination) (recombination with attL homologue) was > 90.
In the case of “121 bp attL homologue in pattPhae2(attL)”, the activity (% recombination) (recombination with attB homologue) is reported as > 90.
